These results are taken from US6509033.

For orientation: Ki means the dissociation constant of the complex between target and ligand, obtained from inhibition or displacement.

In the assay the target is 'Empty' HLA-DR1 purified from insect cells expressing recombinant DR1 cDNA (human).

For LPKPPKPVSKMRMATPLLMQALPM (modifications not checked) [Invariant Chain (Ii) 98-121], the Ki is 33 nM.
